In article PMC4520738:

Biological target: hDNMT1 351-1600 R582E (Homo sapiens, UniProt P26358 351-1600, R582E)
Assay: EMSA

hDNMT1 351-1600 R582E, sequence (P26358 351-1600 R582E): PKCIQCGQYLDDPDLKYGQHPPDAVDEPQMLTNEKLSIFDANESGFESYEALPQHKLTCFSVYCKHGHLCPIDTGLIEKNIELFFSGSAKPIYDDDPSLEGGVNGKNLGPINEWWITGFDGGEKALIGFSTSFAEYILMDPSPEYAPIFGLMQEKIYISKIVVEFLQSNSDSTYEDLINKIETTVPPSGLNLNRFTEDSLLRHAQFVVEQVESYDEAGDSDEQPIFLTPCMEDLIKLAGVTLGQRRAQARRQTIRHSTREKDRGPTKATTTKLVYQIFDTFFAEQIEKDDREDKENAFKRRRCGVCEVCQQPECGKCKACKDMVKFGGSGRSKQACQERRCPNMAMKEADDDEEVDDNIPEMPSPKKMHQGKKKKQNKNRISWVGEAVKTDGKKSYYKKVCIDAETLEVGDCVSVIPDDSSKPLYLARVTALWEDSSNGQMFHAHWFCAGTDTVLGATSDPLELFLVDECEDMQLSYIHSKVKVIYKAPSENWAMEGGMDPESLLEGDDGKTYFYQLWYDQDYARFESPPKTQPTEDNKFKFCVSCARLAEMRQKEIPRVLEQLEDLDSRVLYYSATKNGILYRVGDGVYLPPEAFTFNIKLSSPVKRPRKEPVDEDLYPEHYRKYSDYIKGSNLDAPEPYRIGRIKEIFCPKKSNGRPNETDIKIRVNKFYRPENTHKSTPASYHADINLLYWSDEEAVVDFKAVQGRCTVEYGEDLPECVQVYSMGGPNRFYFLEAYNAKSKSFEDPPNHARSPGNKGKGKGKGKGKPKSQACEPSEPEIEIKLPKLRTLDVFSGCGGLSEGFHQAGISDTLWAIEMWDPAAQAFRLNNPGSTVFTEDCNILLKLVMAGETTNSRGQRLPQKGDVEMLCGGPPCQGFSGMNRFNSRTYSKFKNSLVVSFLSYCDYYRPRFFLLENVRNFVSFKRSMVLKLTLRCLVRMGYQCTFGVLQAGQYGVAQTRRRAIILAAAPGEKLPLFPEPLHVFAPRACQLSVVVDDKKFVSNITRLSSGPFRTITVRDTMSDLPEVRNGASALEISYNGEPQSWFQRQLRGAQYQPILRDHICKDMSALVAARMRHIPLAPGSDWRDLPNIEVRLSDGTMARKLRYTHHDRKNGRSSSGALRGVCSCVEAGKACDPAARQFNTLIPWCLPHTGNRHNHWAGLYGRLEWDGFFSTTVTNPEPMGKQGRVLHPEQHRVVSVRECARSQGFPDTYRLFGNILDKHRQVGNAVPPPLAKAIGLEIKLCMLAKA

B1: 26-mer hemimethylated CpG DNA (dsDNA)
DNA 1: ACACCAAGCCTGCGGAGGCTCACGGA
DNA 2: TCCGTGAGCCTCCGCAGGCTTGGTGT
modifications: 5-methyl-2'-deoxycytidine at position 13 of strand 1 (upper)
Question: Does B1 bind?
Answer: binds
